Paper PMC7641732, “Structural basis of prostate-specific membrane antigen recognition by the A9g RNA aptamer”

Biological target: human PSMA extracellular part (wtPSMA) (human, UniProt Q04609 44-750)
Experiment: X-ray crystallography 2.2 A; 2-PMPA, active-site Zn2+; IC50: 20 mM Tris, 150 mM NaCl, pH 8.0, 37 C preincubation 10 min; flow cytometry: 10 mM Tris, 150 mM NaCl, pH 7.4, 0.5% fish gelatin (inhibitor preincubation 4)
Settings: protein: recombinant; tags: N-terminal Strep-FLAG; chain copies: 2; stem-loop: S1 7 bp, 4x1 internal loop, S2 4 bp, 16-nt hairpin loop

Chain of human PSMA extracellular part (wtPSMA) (Q04609 44-750): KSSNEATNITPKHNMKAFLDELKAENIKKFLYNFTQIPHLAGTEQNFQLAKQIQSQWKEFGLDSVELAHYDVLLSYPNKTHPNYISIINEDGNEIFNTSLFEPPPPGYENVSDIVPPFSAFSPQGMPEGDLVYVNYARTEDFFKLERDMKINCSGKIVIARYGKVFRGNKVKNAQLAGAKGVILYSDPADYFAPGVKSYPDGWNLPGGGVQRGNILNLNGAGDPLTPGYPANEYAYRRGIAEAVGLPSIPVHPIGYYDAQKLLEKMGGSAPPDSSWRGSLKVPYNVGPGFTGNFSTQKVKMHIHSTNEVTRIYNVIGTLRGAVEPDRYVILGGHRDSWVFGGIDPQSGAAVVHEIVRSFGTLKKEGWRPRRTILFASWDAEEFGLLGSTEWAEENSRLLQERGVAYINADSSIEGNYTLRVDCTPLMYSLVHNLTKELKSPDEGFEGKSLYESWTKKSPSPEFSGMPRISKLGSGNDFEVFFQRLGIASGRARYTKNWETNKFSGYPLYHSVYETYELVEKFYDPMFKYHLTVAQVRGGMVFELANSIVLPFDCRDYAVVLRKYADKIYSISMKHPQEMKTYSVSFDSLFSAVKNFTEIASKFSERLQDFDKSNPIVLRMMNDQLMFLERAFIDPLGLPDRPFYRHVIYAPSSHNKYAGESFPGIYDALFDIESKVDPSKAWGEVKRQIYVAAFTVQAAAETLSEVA

**Q.** Does GGGACCGAAAAAGACCUGACUUCUAUACUAAGUCUACGUUCCC (structured_RNA, 2'-deoxy-2'-fluoro on all C and U) [A9g] bind?
**A.** Result: binds
